Measurements as given in US20180155451A1 (published 2018).
Read-outs that look alike come from different tables or passages of the source.

Assays:
Assay in all cases: SPR (Biacore), antibody captured on chip, FcgR extracellular domain as analyte
[1] = biological target: T1, FcgRIIIa F (human, UniProt P08637 17-208)
T1 construct: extracellular domain; also called FcγRIIIa F; not shown: His tag attached to the C terminus
Procedure: (§1) Analysis of interaction between obj ective antibody and the FcγR was carried out using Biacore T100 (GE Healthcare), Biacore T200, Biacore A100, and Biacore 4000. HBS-EP+ (GE Healthcare) was used as the running buffer, and the measurement temperature was set to 25° C. Chips produced by immobilizing the antigen peptide by the amine coupling method to a Series S sensor Chip CM5 (GE Healthcare), chips produced by allowing preliminarily biotinylated antigen peptides to interact with and immobilize onto a Series S Sensor Chip SA (certified) (GE Healthcare), chips produced by immobilizing Protein L (ACTIGEN, BioVision) to Series S Sencor Chip CM5 (GE Healthcare), or chips produced by immobilizing Protein A/G (Thermo Scientific) to Series S Sencor Chip CM5 (GE Healthcare) were used. Antibodies of interest were captured onto these chips, and allowed to interact to each FcγR diluted with running buffer. To regenerate and repeatedly use the chip, the antibodies captured onto the chip were washed off by reacting 10 mM glycine-HCl, pH 1.5.

[2] = biological target: T2, FcgRIa (human, UniProt P12314 16-292)
T2 construct: extracellular domain; Expressed in FreeStyle293 cells and purified; used as analyte in Biacore; also called FcγRIa; FcγRI; not shown: His tag attached to the C terminus
Procedure: as §1

[3] = biological target: T3, FcgRIIb (human, UniProt P31994 43-217)
T3 construct: extracellular domain; Expressed in FreeStyle293 cells and purified; used as analyte in Biacore; also called FcγRIIb; CD32B; not shown: His tag attached to the C terminus
T3 sequence (looked up): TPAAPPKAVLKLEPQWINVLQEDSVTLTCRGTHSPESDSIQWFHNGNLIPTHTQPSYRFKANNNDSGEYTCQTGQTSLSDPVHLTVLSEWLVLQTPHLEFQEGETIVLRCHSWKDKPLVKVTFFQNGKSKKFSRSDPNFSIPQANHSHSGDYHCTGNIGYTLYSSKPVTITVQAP
Procedure: as §1

[4] = biological target: T4, FcgRIIIa V (human, UniProt P08637 17-208)
T4 construct: extracellular domain; also called FcγRIIIa V; not shown: His tag attached to the C terminus
Procedure: as §1

[5] = biological target: T5, FcgRIIa R (human, UniProt P12318 34-217)
T5 construct: extracellular domain; also called FcγRIIa R; FcγRIIa type R; not shown: His tag attached to the C terminus
T5 sequence (looked up): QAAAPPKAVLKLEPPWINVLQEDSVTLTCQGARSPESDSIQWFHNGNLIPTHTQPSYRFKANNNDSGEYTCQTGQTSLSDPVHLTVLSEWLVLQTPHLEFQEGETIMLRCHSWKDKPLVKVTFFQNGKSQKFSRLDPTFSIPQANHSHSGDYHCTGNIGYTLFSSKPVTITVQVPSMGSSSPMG
Procedure: as §1

[6] = biological target: T6, FcgRIIa H (human, UniProt P12318 34-217)
T6 construct: extracellular domain; also called FcγRIIa H; FcγRIIa type H; not shown: His tag attached to the C terminus
T6 sequence (looked up): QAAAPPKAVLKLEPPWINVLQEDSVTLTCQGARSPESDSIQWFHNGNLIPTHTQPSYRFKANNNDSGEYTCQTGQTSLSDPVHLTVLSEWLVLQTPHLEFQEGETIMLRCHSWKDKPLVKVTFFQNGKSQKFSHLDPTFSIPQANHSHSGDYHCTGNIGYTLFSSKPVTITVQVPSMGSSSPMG
Procedure: as §1

[7] = biological target: T1, FcgRIIIa F; remark: listed apart in the source
Procedure: (§2) H240-Kn113 (SEQ ID NO: 92) resulting from introduction of Y234E and Y235N into H240-Kn072, H240-Kn115 (SEQ ID NO: 93) resulting from introduction of S239M into H240-Kn072, and H240-Kn125 (SEQ ID NO: 94) resulting from introduction of Y235Q and S239M into H240-Kn072 were prepared according to the method described in Reference Example 1.
as §1

[8] = biological target: T2, FcgRIa; remark: listed apart in the source
Procedure: as §2, §1

[9] = biological target: T3, FcgRIIb; remark: listed apart in the source
Procedure: as §2, §1

[10] = biological target: T4, FcgRIIIa V; remark: listed apart in the source
Procedure: as §2, §1

[11] = biological target: T5, FcgRIIa R; remark: listed apart in the source
Procedure: as §2, §1

[12] = biological target: T6, FcgRIIa H; remark: listed apart in the source
Procedure: as §2, §1

[13] = biological target: T1, FcgRIIIa F; remark: listed apart in the source
Procedure: (§3) Specifically, H240-Kn120 (SEQ ID NO: 99) resulting from introduction of S239M into H240-Kn067 and H240-Kn126 (SEQ ID NO: 100) resulting from introduction of Y235Q into H240-Kn120 were prepared according to the method described in Reference Example 1. […] Those described above were assayed for the binding to each FcgR according to the method described in Reference Example 8.
as §1

[14] = biological target: T2, FcgRIa; remark: listed apart in the source
Procedure: as §3, §1

[15] = biological target: T3, FcgRIIb; remark: listed apart in the source
Procedure: as §3, §1

[16] = biological target: T4, FcgRIIIa V; remark: listed apart in the source
Procedure: as §3, §1

[17] = biological target: T5, FcgRIIa R; remark: listed apart in the source
Procedure: as §3, §1

[18] = biological target: T6, FcgRIIa H; remark: listed apart in the source
Procedure: as §3, §1

T4 sequence (P08637 17-208 F176V limits assumed): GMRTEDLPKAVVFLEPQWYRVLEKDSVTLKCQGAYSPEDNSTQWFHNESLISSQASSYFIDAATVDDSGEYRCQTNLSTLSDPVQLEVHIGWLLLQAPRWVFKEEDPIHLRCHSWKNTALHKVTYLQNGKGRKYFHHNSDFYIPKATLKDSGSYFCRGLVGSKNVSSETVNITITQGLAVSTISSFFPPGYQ
T2 sequence (P12314 16-292): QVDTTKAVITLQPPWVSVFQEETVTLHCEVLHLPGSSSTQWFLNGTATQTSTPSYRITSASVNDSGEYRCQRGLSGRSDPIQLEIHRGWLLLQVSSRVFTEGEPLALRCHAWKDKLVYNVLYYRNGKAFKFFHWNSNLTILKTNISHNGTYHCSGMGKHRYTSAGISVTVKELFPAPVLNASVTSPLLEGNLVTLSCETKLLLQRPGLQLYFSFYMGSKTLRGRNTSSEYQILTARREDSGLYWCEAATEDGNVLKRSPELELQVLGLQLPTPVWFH
T1 sequence (P08637 17-208): as the sequence (P08637 17-208 F176V limits assumed) above, with V160F counted along it

Binder | Kd [1] | Kd [2] | Kd [3] | Kd [4] | Kd [5] | Kd [6] | Kd [7] | Kd [8] | Kd [9] | Kd [10] | Kd [11] | Kd [12] | Kd [13] | Kd [14] | Kd [15] | Kd [16] | Kd [17] | Kd [18]
H240-Kn061/H240-Hl071/L73-k0 (antibody, human IgG1, kappa, Heterodimerized anti-EREG IgG1: L234Y/L235Y/G236W/H268D/S298A in Kn061, K326D/A330M/K334E in Hl071) heavy 1: QDQLVQSGAEVKKPGASVKVSCKASGFNIKDTYIQWVRQAPGQGLEWMGRIDPLRKQTKYREKFEGRVTITADTSTNTAYMELSSLRSEDTAVYYCVRSGREFDYWGQGTLVTVSSASTKGPSVFPLAPSSKSTSGGTAALGCLVKDYFPEPVTVSWNSGALTSGVHTFPAVLQSSGLYSLSSVVTVPSSSLGTQTYICNVNHKPSNTKVDKKVEPKSCDKTHTCPPCPAPEYYWGPSVFLFPPKPKDTLMISRTPEVTCVVVDVSDEDPEVKFNWYVDGVEVHNAKTKPREEQYNATYRVVSVLTVLHQDWLNGKEYKCKVSNKALPAPIEKTISKAKGQPREPQVCTLPPSRDELTKNQVSLWCLVKGFYPSDIAVEWESNGQPENNYKTTPPVLDSDGSFFLYSKLTVDKSRWQQGNVFSCSVMHEALHNHYTQKSLSLSP heavy 2: QDQLVQSGAEVKKPGASVKVSCKASGFNIKDTYIQWVRQAPGQGLEWMGRIDPLRKQTKYREKFEGRVTITADTSTNTAYMELSSLRSEDTAVYYCVRSGREFDYWGQGTLVTVSSASTKGPSVFPLAPSSKSTSGGTAALGCLVKDYFPEPVTVSWNSGALTSGVHTFPAVLQSSGLYSLSSVVTVPSSSLGTQTYICNVNHKPSNTKVDKKVEPKSCDKTHTCPPCPAPELLGGPSVFLFPPKPKDTLMISRTPEVTCVVVDVSHEDPEVKFNWYVDGVEVHNAKTKPREEQYNSTYRVVSVLTVLHQDWLNGKEYKCKVSNDALPMPIEETISKAKGQPREPQVYTLPPSRCELTKNQVSLSCAVKGFYPSDIAVEWESNGQPENNYKTTPPVLDSDGSFFLVSKLTVDKSRWQQGNVFSCSVMHEALHNHYTQKSLSLSP light: DIQMTQSPSSLSASVGDRVTITCRASQDIHKYIAWYQQKPGQAPRLLIQYTSTLQPGVPSRFSGSGSGTDYTFTISSLQPEDIATYYCLQYEQLRTFGGGTKVEIKRTVAAPSVFIFPPSDEQLKSGTASVVCLLNNFYPREAKVQWKVDNALQSGNSQESVTEQDSKDSTYSLSSTLTLSKADYEKHKVYACEVTHQGLSSPVTKSFNRGEC | 5.1 nM | 0.14 nM | 1200 nM | 1.8 nM | 350 nM | 280 nM | – | – | – | – | – | – | – | – | – | – | – | –
H240-Kn033/H240-Hl033/L73-k0 (antibody, human IgG1, kappa, Anti-epiregulin (EREG) IgG1 control with knobs-into-holes alterations only (Y349C/T366W in the knob chain; D356C/T366S/L368A/Y407V in the hole chain); also called H240-Kn033/H240-HI033/L73-k0) heavy 1: not shown heavy 2: not shown light: DIQMTQSPSSLSASVGDRVTITCRASQDIHKYIAWYQQKPGQAPRLLIQYTSTLQPGVPSRFSGSGSGTDYTFTISSLQPEDIATYYCLQYEQLRTFGGGTKVEIKRTVAAPSVFIFPPSDEQLKSGTASVVCLLNNFYPREAKVQWKVDNALQSGNSQESVTEQDSKDSTYSLSSTLTLSKADYEKHKVYACEVTHQGLSSPVTKSFNRGEC | 2600 nM | 0.25 nM | 4200 nM | 390 nM | 1000 nM | 930 nM | 2600 nM | 0.25 nM | 4200 nM | 390 nM | 1000 nM | 930 nM | 2600 nM | 0.25 nM | 4200 nM | 390 nM | 1000 nM | 930 nM
H240-Kn072/H240-Hl076/L73-k0 (antibody, human IgG1, kappa, Heterodimerized anti-EREG IgG1: D270E introduced into both H chains of H240-Kn061/H240-Hl071/L73-k0) heavy 1: QDQLVQSGAEVKKPGASVKVSCKASGFNIKDTYIQWVRQAPGQGLEWMGRIDPLRKQTKYREKFEGRVTITADTSTNTAYMELSSLRSEDTAVYYCVRSGREFDYWGQGTLVTVSSASTKGPSVFPLAPSSKSTSGGTAALGCLVKDYFPEPVTVSWNSGALTSGVHTFPAVLQSSGLYSLSSVVTVPSSSLGTQTYICNVNHKPSNTKVDKKVEPKSCDKTHTCPPCPAPEYYWGPSVFLFPPKPKDTLMISRTPEVTCVVVDVSDEEPEVKFNWYVDGVEVHNAKTKPREEQYNATYRVVSVLTVLHQDWLNGKEYKCKVSNKALPAPIEKTISKAKGQPREPQVCTLPPSRDELTKNQVSLWCLVKGFYPSDIAVEWESNGQPENNYKTTPPVLDSDGSFFLYSKLTVDKSRWQQGNVFSCSVMHEALHNHYTQKSLSLSP heavy 2: QDQLVQSGAEVKKPGASVKVSCKASGFNIKDTYIQWVRQAPGQGLEWMGRIDPLRKQTKYREKFEGRVTITADTSTNTAYMELSSLRSEDTAVYYCVRSGREFDYWGQGTLVTVSSASTKGPSVFPLAPSSKSTSGGTAALGCLVKDYFPEPVTVSWNSGALTSGVHTFPAVLQSSGLYSLSSVVTVPSSSLGTQTYICNVNHKPSNTKVDKKVEPKSCDKTHTCPPCPAPELLGGPSVFLFPPKPKDTLMISRTPEVTCVVVDVSHEEPEVKFNWYVDGVEVHNAKTKPREEQYNSTYRVVSVLTVLHQDWLNGKEYKCKVSNDALPMPIEETISKAKGQPREPQVYTLPPSRCELTKNQVSLSCAVKGFYPSDIAVEWESNGQPENNYKTTPPVLDSDGSFFLVSKLTVDKSRWQQGNVFSCSVMHEALHNHYTQKSLSLSP light: DIQMTQSPSSLSASVGDRVTITCRASQDIHKYIAWYQQKPGQAPRLLIQYTSTLQPGVPSRFSGSGSGTDYTFTISSLQPEDIATYYCLQYEQLRTFGGGTKVEIKRTVAAPSVFIFPPSDEQLKSGTASVVCLLNNFYPREAKVQWKVDNALQSGNSQESVTEQDSKDSTYSLSSTLTLSKADYEKHKVYACEVTHQGLSSPVTKSFNRGEC | 2.6 nM | 0.1 nM | 5700 nM | 1 nM | 710 nM | 130 nM | 2.6 nM | 0.1 nM | 5700 nM | 1 nM | 710 nM | 130 nM | – | – | – | – | – | –
